Experimental findings from US10517925B2, “Composition comprising KA11 polypeptide or gene encoding the same for inhibiting angiogenesis, and use thereof” (SEOUL NATIONAL UNIVERSITY R & DB FOUNDATION, priority 2015, dated 2019) are described below.

Entries after “also recorded” stand apart in the source; their conditions may differ.

Experiment [1] relates to KAI1 expression in 10T1/2. The experiment can be described thus: blocking of the cytokine-induced decrease in KAI1 expression of 10T1/2 by inhibitor pre-treatment. The experiment is classed as cell-based, mouse. As to conditions: 10T1/2, 50 μM methylation inhibitor, then cytokine (VEGF-A, bFGF, PDGF-bb). The procedure:
Before 10T1/2 was treated with 40 ng/ml of a cytokine (VEGF-A, bFGF or PDGF-bb) selected in Example 8-1, a cytokine receptor inhibitor was treated beforehand. To this end, VEGF-A- and PDGF-bb-treated groups were treated with a tyrosine kinase inhibitor named SU11248, and a bFGF-treated group was pre-treated with a tyrosine kinase inhibitor named PD173074 for 2 hours, treated with 40 ng/ml of each cytokine (VEGF-A, bFGF, and PDGF-bb) as an angiogenic factor for 24 hours, and then harvested to confirm KAI1 expression through RT-qPCR and Western blotting, and the result is shown in FIGS. 29A and 29B.
To confirm signaling of the decrease in KAI1 expression in 10T1/2 by a cytokine, RT-qPCR and Western blotting were used to confirm whether the decrease in KAI1 expression in 10T1/2 by a cytokine was blocked by treating 10T1/2 with a signal molecule inhibitor (a Src, Pkc, TGF-β, MAPK, AKT, p53. or JAK inhibitor) before cytokine stimulation, and the result is shown in FIGS. 35 to 38.
10T1/2 was treated with 50 μM of a methylation inhibitor (5-azacytidine), and then treated with each cytokine (VEGF-A, bFGF, and PDGF-bb), which is an angiogenic factor, to confirm KAI1 expression, and the result is shown in FIG. 40.

Experiment [2] relates to KAI1 expression in 10T1/2. The experiment can be described thus: KAI1 expression of 10T1/2 treated with angiogenic cytokines (RT-qPCR, Western blotting, immunostaining). In kind it is cell-based, mouse. As to conditions: for KAI1 expression: 10T1/2, 40 ng/ml cytokine, until 72 hours; for KAI1 expression after removal of the stimulant: 10T1/2 stimulated 24 hours, then fresh culture media. The procedure: That is, the change in KAI1 expression according to time (24 hrs, 48 hrs or 72 hrs) after 10T1/2 was treated with 40 ng/ml of each cytokine (VEGF-A, bFGF or PDGF-bb) was identified through RT-qPCR, Western blotting and immunostaining, and thus the results are shown in FIGS. 31A and 31B and 32. Here, each group of 10T1/2 was treated with 40 ng/ml of each cytokine (VEGF-A, bFGF, and PDGF-bb) as an angiogenic factor and cultured in RPMI 1640 HEPES supplemented with 10% (v/v) fetal bovine serum (FBS) and 1% antibiotics-antimycotics for up to 72 hours without change in a culture medium.
After FGF or PDGF stimulation was given to 10T1/2, 24 hours later, the media was changed with fresh culture media (general culture media), and then RT-qPCR and Western blotting were conducted to confirm whether there was a change in the decreased expression of KAI1. […] From the result, it can be seen that the decrease in KAI1 expression was reversible.

Experiment [3] concerns MS-1 / 10T1/2 hybrid spheroid. The experiment can be described thus: EC-pericyte hybrid spheroid sprouting in collagen. In kind it is cell-based, mouse. The settings on record: culture media supplemented with KAI1 protein. From the text: Here, a mouse endothelial cell line (MS-1) was used as ECs and 10T1/2 was used as pericytes. In addition, KAI1 was overexpressed using an adenovirus in pericytes. In the manufacture of the spheroid, a ratio of the number of each type of cell (EC:pericyte) was 2:1, and the total cell number was fixed at 3×10^3. As culture media used to grow the spheroids, 10% FBS and 1% antibiotics-antimycotics-containing Dulbecco's modified eagle medium (DMEM) was used. In addition, effective EC sprouting was induced by a treatment of 100 ng/ml of recombinant human VEGF.
Afterwards, to verify an anticancer effect of a KAI1 protein treatment, B16 and an EC-pericyte hybrid spheroid were manufactured and embedded in collagen, and then a degree of vessel formation was observed by time. Here, a mouse endothelial cell line (MS-1) was used as ECs, and 10T1/2 was used as pericytes. In the manufacture of the spheroid, a ratio of the number of each type of cell (EC:pericyte) was 2:1, and the total cell number was fixed at 3×10^3. As culture media used to grow the spheroids, Dulbecco's modified eagle medium (DMEM) supplemented with 10% FBS and 1% antibiotics-antimycotics and a KAI1 protein was used. As a result, as shown in FIGS. 50A and 50B and 51, it can be confirmed that the sprouting of the KAI1 protein was inhibited in the spheroids. Therefore, an anticancer effect of the KAI1 protein was able to be expected.

A further experiment relates to mouse cornea. The experiment can be described thus: mouse cornea micropocket assay. In kind it is in vivo. As to conditions: pellet containing both cytokine and protein, 10 days, similar to vehicle. The procedure:
Based on the above-described in vitro experiment, a mouse cornea micropocket assay was performed to confirm whether angiogenesis was actually regulated by in vivo regulation of the KAI1 expression of pericytes. After a pocket formed by mixing cytokine, sucralfate and poly-hema (from which the cytokine was slowly secreted little by little) was manufactured and added to the mouse cornea, a degree of angiogenesis per experimental group was examined for 10 days. As a result, as shown in FIGS. 47A and 47B, it can be confirmed that, compared to a vehicle, angiogenesis in the mouse cornea injected with a pellet containing only a cytokine was added was much increased.

Experiment [4] deals with prostate cancer cell line (PC-3). The experiment can be described thus: PC-3 matrigel subcutaneous tumor mass formation in mice. The experiment is classed as in vivo, mouse. As to conditions: PC-3 with matrigel subcutaneously in mice, compared to vehicle. The text has this:
More specifically, a prostate cancer cell line (PC-3) was mixed with a matrigel and subcutaneously injected into mice, and then tumor mass formation was observed and compared per experimental group. […] In addition, it can be confirmed that tumor mass was smaller in a group injected with a supernatant of KAI1 O/E 10T1/2 than in a group injected with a supernatant of mock 10T1/2. After the tumor mass obtained in the above-mentioned experiment was fixed with PFA, the cross-section was formed into sections, and a degree of angiogenesis per experimental group was determined by IF. Antibodies used herein were BS-1 Lectin (EC marker, 488 fluorescence), α-SMA (Pericyte marker, 555 fluorescence), and DAPI (nucleus marker, 405 fluorescence).

The next experiment concerns retinal angiogenesis. The experiment can be described thus: retinal disease model mouse, injection into the orbit. In kind it is in vivo. As to conditions: injected into the orbit of model mouse, immunofluorescence, compared with control (not treated). The protocol:
Retinal diseases such as diabetic retinopathy and central serous (chorio)retinopathy are diseases of the loss of eyesight as vessel permeability is increased by a VEGF, body fluids gather around the retina (macular edema), and pathological angiogenesis occur.
A KAI1 protein was injected into the orbit of a model mouse with such a disease, and a degree of angiogenesis inhibition was compared with a control (not treated).

On to `Nc1ncn([C@@H]2O[C@H](CO)[C@@H](O)[C@H]2O)c(=O)n1` [5-azacytidine], for which, in experiment [1], the KAI1 gene expression result is recorded as “not decreased”.

In the case of “bFGF: typical angiogenic factor (cytokine)”, in experiment [2], the KAI1 expression entry is on record as “continuously decreased” and the “KAI1 expression after removal of the stimulant” value is “recovered again”.

B1: PDGF-bb: typical angiogenic factor (cytokine) (protein, UniProt P01127 82-190, looked up)
Platelet-derived growth …: SLGSLTIAEPAMIAECKTRTEVFEISRRLIDRTNANFLVWPPCVEVQRCSGCCNNRNVQCRPTQVQLRPVQVRKIEIVRKKPIFKKATVTLEDHLACKCETVAAARPVT
modifications: homodimer
Regarding B1, in experiment [2], the KAI1 expression result is “continuously decreased” and the “KAI1 expression after removal of the stimulant” value is “recovered again”.

B2: KAI1 protein: KAI1(CD82) polypeptide, human-derived amino acid sequence of SEQ ID NO: 1 or mouse-derived SEQ ID NO: 2 (protein)
chain: MGAGCVKVTKYFLFLFNLLFFILGAVILGFGVWILADKNSFISVLQTSSSSLQVGAYVFIGVGAITIVMGFLGCIGAVNEVRCLLGLYFVFLLLILIAQVTVGVLFYFNADKLKKEMGNTVMDIIRNYTANATSSREEAWDYVQAQVKCCGWVSHYNWTENEELMGFTKTTYPCSCEKIKEEDNQLIVKKGFCEADNSTVSENNPEDWPVNTEGCMEKAQAWLQENFGILLGVCAGVAVIELLGLFLSICLCRYIHSEDYSKVPKY
Take B2: the “sprouting of B16 and EC-pericyte hybrid spheroids” value in experiment [3] was “inhibited”. In addition, the “angiogenesis in the mouse cornea” value in the experiment on mouse cornea is listed as “no angiogenesis”. In addition, the tumor mass entry in experiment [4] was “smaller”. Also, in the experiment on retinal angiogenesis, the “angiogenesis in the presence of VEGF” value is recorded as “angiogenesis was inhibited; also recorded: inhibition of angiogenesis”.
